According to US20060193849A1 (ANTISOMA, published 2006):

Experiments:
[1] = target: T1, MUC-1 gene product, the membrane mucin glycoprotein (polymorphic epithelial mucin or PEM) (human, UniProt P15941 24-1255); assay: flow cytometry equilibrium binding on MCF7 cells; reference scFv 4.9M
T1 construct: whole, on cells; SKOV-3 is also named in the method
Description: (§1) Bound antibodies were detected under the same conditions, as described in the section entitled binding assays above.
(§2) The median fluorescence intensity (MFI) was determined as described in the binding assays section above and the background fluorescence was subtracted. Equilibrium constants were determined by using the Marquardt-Levenberg algorithm for non-linear regression with the GraphPad Prism version 3.0a for Macintosh (GraphPad Software, San Diego, Calif.).

[2] = target: T1, MUC-1 gene product, the membrane mucin …; assay: flow cytometry equilibrium binding on MCF7 cells, non-linear regression; 0 h at 37 C
Description: as §1
After two final washing steps in 200 μl of FACS buffer, the cells were fixed in PBS buffer containing 2% paraformaldehyde for 15 minutes at room temperature and analysed by flow cytometry.
as §2

[3] = target: T1, MUC-1 gene product, the membrane mucin …; assay: flow cytometry equilibrium binding on MCF7 cells, non-linear regression; after pre-incubation in PBS for 1 h at 37 C
Description: as §1, §2

[4] = target: T1, MUC-1 gene product, the membrane mucin …; assay: flow cytometry equilibrium binding on MCF7 cells; after pre-incubation in PBS for 1 h at 37 C against no pre-incubation
Description: as §1, §2

T1 sequence (P15941 24-1255): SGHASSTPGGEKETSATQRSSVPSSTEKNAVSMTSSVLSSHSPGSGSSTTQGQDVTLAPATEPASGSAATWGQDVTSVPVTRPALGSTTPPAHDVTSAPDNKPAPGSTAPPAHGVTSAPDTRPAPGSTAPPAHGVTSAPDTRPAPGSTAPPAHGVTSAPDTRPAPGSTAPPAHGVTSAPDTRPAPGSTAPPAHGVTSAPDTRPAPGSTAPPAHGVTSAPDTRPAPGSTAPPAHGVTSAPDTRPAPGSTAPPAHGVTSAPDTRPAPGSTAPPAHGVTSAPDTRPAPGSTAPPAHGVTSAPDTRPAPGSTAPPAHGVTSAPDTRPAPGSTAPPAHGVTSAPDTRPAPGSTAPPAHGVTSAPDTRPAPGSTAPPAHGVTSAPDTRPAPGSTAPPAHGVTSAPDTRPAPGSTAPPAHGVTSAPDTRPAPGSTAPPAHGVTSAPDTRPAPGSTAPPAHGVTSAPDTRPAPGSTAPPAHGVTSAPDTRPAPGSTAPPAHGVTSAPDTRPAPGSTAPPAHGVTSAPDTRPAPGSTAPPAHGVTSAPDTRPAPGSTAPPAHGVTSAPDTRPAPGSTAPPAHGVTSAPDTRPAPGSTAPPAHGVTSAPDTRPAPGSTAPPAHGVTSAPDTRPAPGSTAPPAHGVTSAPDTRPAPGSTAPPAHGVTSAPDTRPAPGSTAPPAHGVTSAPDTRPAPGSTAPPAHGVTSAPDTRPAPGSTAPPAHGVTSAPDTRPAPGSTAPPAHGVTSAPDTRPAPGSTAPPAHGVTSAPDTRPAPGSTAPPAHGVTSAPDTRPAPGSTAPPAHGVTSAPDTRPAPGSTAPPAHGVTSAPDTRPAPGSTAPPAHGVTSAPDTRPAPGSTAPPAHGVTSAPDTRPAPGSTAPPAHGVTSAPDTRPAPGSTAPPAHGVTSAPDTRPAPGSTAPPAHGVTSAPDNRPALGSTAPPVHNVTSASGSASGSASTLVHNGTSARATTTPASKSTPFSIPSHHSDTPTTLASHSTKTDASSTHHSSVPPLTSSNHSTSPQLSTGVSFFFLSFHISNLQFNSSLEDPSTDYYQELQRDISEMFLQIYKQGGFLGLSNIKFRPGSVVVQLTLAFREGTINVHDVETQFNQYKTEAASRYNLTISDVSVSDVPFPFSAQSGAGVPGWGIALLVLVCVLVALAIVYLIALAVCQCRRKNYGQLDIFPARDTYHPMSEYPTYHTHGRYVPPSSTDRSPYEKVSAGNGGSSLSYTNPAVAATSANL

B1: diabody Db 4.9M (other)
chain 1: QVQLVQSGAEVKKPGASVKVSCKASGYTFSAYWIEWVRQAPGKGLEWVGEILPGSNNSRYNEKFKGRVTVTADTSTNTAYMELSSLRSEDTAVYYCARSYDFAWFAYWGQGTLVTVSSGGGGSDIQMTQSPSSLSASVGDRVTITCKSSQSLLYSSNQKIYLAWYQQKPGKAPKLLIYWASTRESGVPSRFSGSGSGTDFTFTISSLQPEDIATYYCQQYYRYPRTFGQGTKVEIKR
chain 2: B1 chain 1
notes: also called diabody 4.9
fold higher affinity than the corresponding scFv 4.9M [1]: 13 fold
Kd [2]: 8 nM

B2: huHMFG1 scFv mutant 4.9M (stability engineered huHMFG1-scFv/Clone 4.9) (scFv)
scFv: QVQLVQSGAEVKKPGASVKVSCKASGYTFSAYWIEWVRQAPGKGLEWVGEILPGSNNSRYNEKFKGRVTVTADTSTNTAYMELSSLRSEDTAVYYCARSYDFAWFAYWGQGTLVTVSSGGGGSGGGGSGGGGSDIQMTQSPSSLSASVGDRVTITCKSSQSLLYSSNQKIYLAWYQQKPGKAPKLLIYWASTRESGVPSRFSGSGSGTDFTFTISSLQPEDIATYYCQQYYRYPRTFGQGTKVEIKR
notes: also called scFv 4.9M; HMFG1-scFv 4.9M
Kd [3]: 195 nM
fold decrease in antigen binding affinity after 1 hour at 37° C. in PBS [4]: 1.9 fold
Kd [2]: 103 nM
